Laboratory results from US7041806.
pKd: −log10 of the molar value.

Assays:
[1] = molecular target: UNC5H-1 (rat homologue of UNC-5) (rat) (UniProt O08721); assay: equilibrium binding, curves fitted to the Hill equation
[2] = molecular target: UNC5H-2 (rat homologue of UNC-5) (rat) (UniProt O08722); assay: as above

UniProt O08721, sequence (O08721 26-898 limits assumed, form in doubt): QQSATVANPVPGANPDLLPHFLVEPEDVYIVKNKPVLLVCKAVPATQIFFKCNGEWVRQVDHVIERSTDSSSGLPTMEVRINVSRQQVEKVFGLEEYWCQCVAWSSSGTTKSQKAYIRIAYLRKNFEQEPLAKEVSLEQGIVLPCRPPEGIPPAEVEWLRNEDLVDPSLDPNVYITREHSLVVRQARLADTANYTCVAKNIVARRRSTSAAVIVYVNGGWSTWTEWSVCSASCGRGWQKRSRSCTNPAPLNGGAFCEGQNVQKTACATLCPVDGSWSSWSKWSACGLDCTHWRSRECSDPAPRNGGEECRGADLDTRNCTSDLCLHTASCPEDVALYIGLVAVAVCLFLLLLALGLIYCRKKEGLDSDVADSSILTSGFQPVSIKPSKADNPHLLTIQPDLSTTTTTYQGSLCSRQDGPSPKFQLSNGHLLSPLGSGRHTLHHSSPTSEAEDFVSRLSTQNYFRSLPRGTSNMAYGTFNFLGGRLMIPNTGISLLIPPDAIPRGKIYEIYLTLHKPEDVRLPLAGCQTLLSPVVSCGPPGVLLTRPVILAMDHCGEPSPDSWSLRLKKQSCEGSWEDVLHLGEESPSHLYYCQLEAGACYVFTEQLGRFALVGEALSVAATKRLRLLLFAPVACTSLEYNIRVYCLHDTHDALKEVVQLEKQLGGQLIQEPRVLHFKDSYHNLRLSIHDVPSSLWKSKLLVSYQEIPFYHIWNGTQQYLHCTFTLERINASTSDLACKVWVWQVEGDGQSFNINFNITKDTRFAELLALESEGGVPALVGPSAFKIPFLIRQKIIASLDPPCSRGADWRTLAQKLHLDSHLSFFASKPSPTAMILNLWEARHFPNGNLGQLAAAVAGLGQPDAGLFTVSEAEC

- pKd [1]: 7.72
- pKd [2]: 8.47
Substance: netrin(VIoV)-Fc (Fc fusion)
